Test results from patent US20260092115A1 (Chugai, published 2026).

Columns and labels:
[1] = target: T1, human FcγRIIb extracellular domain, His-tagged (human, UniProt P31994 43-217); assay: binding amount of this antibody divided by that of 04H1637-G1m/04L1610-lam1; SPR pH 7.4
T1 construct: extracellular domain; also called hFcγR IIb
T1 sequence (looked up): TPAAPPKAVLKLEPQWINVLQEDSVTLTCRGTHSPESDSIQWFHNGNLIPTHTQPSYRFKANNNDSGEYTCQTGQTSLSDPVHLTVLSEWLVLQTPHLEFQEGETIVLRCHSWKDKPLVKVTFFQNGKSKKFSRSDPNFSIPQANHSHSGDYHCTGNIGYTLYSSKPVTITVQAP
Method: (§1) The interaction between the generated antibodies and human FcγRs was analyzed by the following method using Biacore T200. 50 mM Na-Phosphate, 150 mM NaCl, 0.05% Tween20 (pH 7.4) was used as the running buffer, and the assay was performed at 25° C. For the sensor chips, Series S SA (GE Healthcare) chips onto which CaptureSelect Human Fab-lambda Kinetics Biotin Conjugate (Thermo Fisher Scientific) was immobilized were used. The antibodies of interest were captured onto these chips and each FcγR diluted in the running buffer was allowed to interact with them. Chips were regenerated with 10 mM Glycine-HCl (pH 1.5) and 25 mM NaOH, and assay was performed by repeatedly capturing antibodies. The dissociation constants KD (mol/L) for FcγRs of each antibody were calculated using Biacore T200 Evaluation Software 2.0, using the 1:1 Langmuir binding model for FcγRIa and FcγRIIIa and the steady state affinity model for FcγRIIa. For FcγRIIb, the binding amount of FcγRIIb per unit amount of antibody was calculated by correcting the binding amount of FcγRIIb obtained from the sensorgram obtained by the measurement with the amount of antibody captured onto the chip surface.
(§2) “Relative value to KD between G1m and hFcRn” and “Relative value to KD between G1m and hFcγRs” are values obtained by dividing the KD value of 04H1637-G1m/04L1610-lam1 for hFcRn and for each FcγR by the KD value of each variant, respectively. “Relative binding amount” indicates the value obtained by dividing the binding amount of each variant to FcγRIIb by the binding amount of 04H1637-G1m/04L1610-lam1. […] It was shown that all of the generated heterodimerized antibodies had enhanced binding to FcγRIIa and FcγRIIIa as compared with 04H1637-G1m/04L1610-lam1 which has the constant region of native human IgG1.

human FcRn = target: T2, human FcRn (human, UniProt P55899 24-290; P61769 21-119); assay: KD of 04H1637-G1m/04L1610-lam1 divided by KD of this antibody; SPR pH 6.0
T2 construct: Prepared by the method of WO 2010/107110; also called hFcRn
T2 sequence (P55899 24-290 limits assumed, chain 1 of 2): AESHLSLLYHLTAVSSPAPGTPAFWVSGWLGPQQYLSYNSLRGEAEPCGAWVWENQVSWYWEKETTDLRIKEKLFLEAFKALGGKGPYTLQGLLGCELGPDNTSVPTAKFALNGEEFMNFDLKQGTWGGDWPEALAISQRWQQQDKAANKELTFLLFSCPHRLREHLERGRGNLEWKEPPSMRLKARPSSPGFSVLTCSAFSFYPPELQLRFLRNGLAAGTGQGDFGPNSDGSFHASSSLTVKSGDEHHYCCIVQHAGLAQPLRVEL
T2 sequence (P61769 21-119 limits assumed, chain 2 of 2): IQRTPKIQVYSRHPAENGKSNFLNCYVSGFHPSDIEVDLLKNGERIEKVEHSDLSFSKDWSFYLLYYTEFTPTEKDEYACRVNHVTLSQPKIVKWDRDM
Method: The interaction between the generated antibodies and human FcRn was analyzed by the following method using Biacore T200. 50 mM Na-Phosphate, 150 mM NaCl, 0.05% Tween20 (pH 6.0) was used as the running buffer, and the assay was performed at 25° C. For the sensor chip, Series S SA (GE Healthcare) chips onto which CaptureSelect Human Fab-lambda Kinetics Biotin Conjugate (Thermo Fisher Scientific) was immobilized were used. The antibodies of interest were captured onto these chips and FcRn diluted in the running buffer was allowed to interact with them. Chips were regenerated with 10 mM Glycine-HCl (pH 1.5) and 25 mM NaOH, and assay was performed by repeatedly capturing antibodies. The dissociation constant for FcRn of each antibody was calculated using the steady state model, using Biacore T200 Evaluation Software 2.0.
“Relative value to KD between G1m and hFcRn” and “Relative value to KD between G1m and hFcγRs” are values obtained by dividing the KD value of 04H1637-G1m/04L1610-lam1 for hFcRn and for each FcγR by the KD value of each variant, respectively. “Relative binding amount” indicates the value obtained by dividing the binding amount of each variant to FcγRIIb by the binding amount of 04H1637-G1m/04L1610-lam1. […] It was shown that all of the generated heterodimerized antibodies had enhanced binding to FcγRIIa and FcγRIIIa as compared with 04H1637-G1m/04L1610-lam1 which has the constant region of native human IgG1. Furthermore, 04H1637-Kn462/04L1610-lam1//04H1637-H1441/04L1610-lam1, 04H1637-Kn462/04L1610-lam1//04H1637-H1445/04L1610-lam1, and 04H1637-Kn461/04L1610-lam1//04H1637-H1443/04L1610-lam1 were all shown to have enhanced binding to FcγRIIa compared to 04H1637-Kn125/04L1610-lam1//04H1637-H1076/04L1610-lam 1 which has the Fc region variant reported in WO 2013/002362.

[2] = target: T1, human FcγRIIb extracellular domain, …; assay: SPR Biacore T200, 25C, pH 7.4; FcγRIIb at 1000 nM, corrected by captured antibody
Method: as §1

[3] = target: T3, human FcγRIIIa, allotype F158, extracellular domain, His-tagged (human, UniProt P08637 17-208); assay: KD of 04H1637-G1m/04L1610-lam1 divided by KD of this antibody; SPR pH 7.4
T3 construct: extracellular domain; also called hFcγR IIIa F
T3 sequence (P08637 17-208): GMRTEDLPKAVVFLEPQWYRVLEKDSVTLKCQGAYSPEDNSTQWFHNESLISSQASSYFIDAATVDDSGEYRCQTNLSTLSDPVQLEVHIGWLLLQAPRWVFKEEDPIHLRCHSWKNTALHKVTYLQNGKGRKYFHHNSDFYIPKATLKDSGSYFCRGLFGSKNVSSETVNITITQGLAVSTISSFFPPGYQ
Method: as §1, §2

[4] = target: T4, human FcγRIa extracellular domain, His-tagged (human, UniProt P12314 16-292); assay: as above
T4 construct: also called hFcγR Ia
T4 sequence (P12314 16-292): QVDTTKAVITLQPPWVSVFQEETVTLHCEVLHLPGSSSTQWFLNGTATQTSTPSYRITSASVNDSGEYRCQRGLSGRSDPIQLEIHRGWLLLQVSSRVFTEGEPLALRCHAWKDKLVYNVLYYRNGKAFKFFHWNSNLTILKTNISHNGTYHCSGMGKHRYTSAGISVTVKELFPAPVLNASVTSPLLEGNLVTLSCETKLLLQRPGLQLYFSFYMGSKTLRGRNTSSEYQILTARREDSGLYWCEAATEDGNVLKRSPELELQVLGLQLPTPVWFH
Method: as §1, §2

[5] = target: T5, human FcγRIIa, type H, extracellular domain, His-tagged (human, UniProt P12318 34-217); assay: as above
T5 construct: extracellular domain; also called hFcγR IIa H
T5 sequence (looked up): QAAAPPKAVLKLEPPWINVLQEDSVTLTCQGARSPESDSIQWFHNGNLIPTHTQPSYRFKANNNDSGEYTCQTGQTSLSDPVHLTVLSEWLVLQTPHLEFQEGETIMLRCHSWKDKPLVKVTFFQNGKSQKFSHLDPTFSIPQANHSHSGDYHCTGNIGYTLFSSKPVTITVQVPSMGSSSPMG
Method: as §1, §2

[6] = target: T6, human FcγRIIa, type R, extracellular domain, His-tagged (human, UniProt P12318 34-217); assay: as above
T6 construct: extracellular domain; also called hFcγR IIa R
T6 sequence (looked up): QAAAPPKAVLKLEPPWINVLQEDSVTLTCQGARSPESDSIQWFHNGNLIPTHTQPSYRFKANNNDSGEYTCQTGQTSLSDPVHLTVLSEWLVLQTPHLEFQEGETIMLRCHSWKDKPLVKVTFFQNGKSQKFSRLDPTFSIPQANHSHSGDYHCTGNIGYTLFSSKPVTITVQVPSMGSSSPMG
Method: as §1, §2

[7] = target: T7, human FcγRIIIa, allotype V158, extracellular domain, His-tagged (human, UniProt P08637 17-208); assay: as above
T7 construct: extracellular domain; also called hFcγR IIIa V
T7 sequence (P08637 17-208 F176V): as the sequence (P08637 17-208) above, with F160V counted along it
Method: as §1, §2

B1: 04H1654-KT462/04L1610-lam1//04H1656-HT445/04L1610-lam1 (antibody, human IgG1, lambda)
heavy 1: QVQLVESGGGVVQPGGSLRLSCAASGFTFSSKTMNWVRQAPGKGLEWVSSISTQSHYIYYARSVRGRFTISRDNAKNSLYLQMNSLRAEDTAVYYCARYGKREDMLWVFDYWGQGTLVTVSSASTKGPSVFPLAPSSKSTSGGTAALGCLVKDYFPEPVTVSWNSGALTSGVHTFPAVLQSSGLYSLSSVVTVPSSSLGTQTYICNVNHKPSNTKVDKRVEPKSCDKTHTCPPCPAPEFQWGPMVFLFPPKPKDVLMISRTPEVTCVVVDVSDEEPEVKFNWYVDGVEVHNAKTKPREEQYNATYRVVSVLPVLHQDWLNGKEYKCKVSNDALPAPIEKTISKAKGQPREPQVYTLPPSRKEMTKNQVSLTCLVKGFYPSDIAVEWESNGQPENNYKTTPPVLDSDGSFFLYSKLTVDKSRWQQGNVFSCSVMHEALHNHYTQKSLSLSP
heavy 2: QVQLVESGGGVVQPGGSLRLSCAASGFTFSSKTMNWVRQAPGKGLEWVSSISTQSHYIYYAESVRGRFTISRDNAKNSLYLQMNSLRAEDTAVYYCARYGAREDMLWVFDYWGQGTLVTVSSASTKGPSVFPLAPSSKSTSGGTAALGCLVKDYFPEPVTVSWNSGALTSGVHTFPAVLQSSGLYSLSSVVTVPSSSLGTQTYICNVNHKPSNTKVDKRVEPKSCDKTHTCPPCPAPELLAGPSVFLFPPKPKDVLMISRTPEVTCVVVDVSHEEPEVKFNWYVDGVEVHNAKTKPREEQYNATYRVVSVLPVLHQDWLNGKEYKCKVSNDALPKPDEETISKAKGQPREPQVYTLPPSREEMTKNQVSLTCLVKGFYPSDIAVEWESNGQPENNYKTTPPVLDSDGSFFLYSKLTVDKSRWQQGNVFSCSVMHEALHNHYTQESLSLSP
light: QSALTQPPSASGSPGQSVTISCEGPSTGVGDYNWVHWYQQHPGKAPKLMIYFTSKKPSGVPDRFSGSKSGNTASLTVSGLQAEDEADYYCQTYAAPLGPMFGGGTKLTVLGQPKAAPSVTLFPPSSEELQANKATLVCLISDFYPGAVTVAWKADSSPVKAGVETTTPSKQSNNKYAASSYLSLTPEQWKSHRSYSCQVTHEGSTVEKTVAPTECS
notes: Heterodimerized IgG1 (IGHG1*03) Fc variant
Relative binding amount [1]: 3.1 ratio | Relative value to KD between G1m and hFcRn (human FcRn): 0.9 ratio | Binding amount [2]: 0.025 RU per RU of captured antibody | Relative value to KD between G1m and hFcγRs [3]: 415 ratio | Relative value to KD between G1m and hFcγRs [4]: 1.6 ratio | Relative value to KD between G1m and hFcγRs [5]: 13.9 ratio | Relative value to KD between G1m and hFcγRs [6]: 13 ratio | Relative value to KD between G1m and hFcγRs [7]: 110 ratio
